# Laboratory results from patent publication US12104181B2, “Compositions and methods for treating viral infections targeting TRIM7” (THE BOARD OF REGENTS OF THE UNIVERSITY OF TEXAS SYSTEM, priority 2021, dated 2024).
# Test system: coxsackievirus B3 (CVB3-GFP)
# Format: cell-based
# Conditions: HeLa cells, replicate R1; for Percent Infected R1: GFP-positive cells within RFP-positive gate
Molecule,Percent Infected R1 [%],Z score R1
TRIM62: human RING type E3 ligase expressed from lentiviral vector (protein) MACSLKDELLCSICLSIYQDPVSLGCEHYFCRRCITEHWVRQEAQGARDCPECRRTFAEPALAPSLKLANIVERYSSFPLDAILNARRAARPCQAHDKVKLFCLTDRALLCFFCDEPALHEQHQVTGIDDAFDELQRELKDQLQALQDSEREHTEALQLLKRQLAETKSSTKSLRTTIGEAFERLHRLLRERQKAMLEELEADTARTLTDIEQKVQRYSQQLRKVQEGAQILQERLAETDRHTFLAGVASLSERLKGKIHETNLTYEDFPTSKYTGPLQYTIWKSLFQDIHPVPAALTLDPGTAHQRLILSDDCTIVAYGNLHPQPLQDSPKRFDVEVSVLGSEAFSSGVHYWEVVVAEKTQWVIGLAHEAASRKGSIQIQPSRGFYCIVMHDGNQYSACTEPWTRLNVRDKLDKVGVFLDYDQGLLIFYNADDMSWLYTFREKFPGKLCSYFSPGQSHANGKNVQPLRINTVRI,51.3,−0.474
"TRIM49: human RING type E3 ligase expressed from lentiviral vector (protein, UniProt P0CI25 1-452, looked up, lentiviral expression, human RING type E3 ligase expressed from lentiviral vector) Tripartite motif-containing …: MNSGILQVFQGELICPLCMNYFIDPVTIDCGHSFCRPCFYLNWQDIPFLVQCSECTKSTEQINLKTNIHLKKMASLARKVSLWLFLSSEEQMCGTHRETKKIFCEVDRSLLCLLCSSSQEHRYHRHRPIEWAAEEHREKLLQKMQSLWEKACENHRNLNVETTRTRCWKDYVNLRLEAIRAEYQKMPAFHHEEEKHNLEMLKKKGKEIFHRLHLSKAKMAHRMEILRGMYEELNEMCHKPDVELLQAFGDILHRSESVLLHMPQPLNPELSAGPITGLRDRLNQFRVHITLHHEEANNDIFLYEILRSMCIGCDHQDVPYFTATPRSFLAWGVQTFTSGKYYWEVHVGDSWNWAFGVCNMYRKEKNQNEKIDGKAGLFLLGCVKNDIQCSLFTTSPLMLQYIPKPTSRVGLFLDCEAKTVSFVDVNQSSLIYTIPNCSFSPPLRPIFCCIHF",65.7,−0.291
"TRIM60: human RING type E3 ligase expressed from lentiviral vector (protein, UniProt Q495X7 1-471, looked up) Tripartite motif-containing …: MEFVTALVNLQEESSCPICLEYLKDPVTINCGHNFCRSCLSVSWKDLDDTFPCPVCRFCFPYKSFRRNPQLRNLTEIAKQLQIRRSKRKRQKENAMCEKHNQFLTLFCVKDLEILCTQCSFSTKHQKHYICPIKKAASYHREILEGSLEPLRNNIERVEKVIILQGSKSVELKKKVEYKREEINSEFEQIRLFLQNEQEMILRQIQDEEMNILAKLNENLVELSDYVSTLKHLLREVEGKSVQSNLELLTQAKSMHHKYQNLKCPELFSFRLTKYGFSLPPQYSGLDRIIKPFQVDVILDLNTAHPQLLVSEDRKAVRYERKKRNICYDPRRFYVCPAVLGSQRFSSGRHYWEVEVGNKPKWILGVCQDCLLRNWQDQPSVLGGFWAIGRYMKSGYVASGPKTTQLLPVVKPSKIGIFLDYELGDLSFYNMNDRSILYTFNDCFTEAVWPYFYTGTDSEPLKICSVSDSER",54.3,−0.436
"TRIM68: human RING type E3 ligase expressed from lentiviral vector (protein, UniProt Q6AZZ1 1-485, looked up) E3 ubiquitin-protein ligase …: MDPTALVEAIVEEVACPICMTFLREPMSIDCGHSFCHSCLSGLWEIPGESQNWGYTCPLCRAPVQPRNLRPNWQLANVVEKVRLLRLHPGMGLKGDLCERHGEKLKMFCKEDVLIMCEACSQSPEHEAHSVVPMEDVAWEYKWELHEALEHLKKEQEEAWKLEVGERKRTATWKIQVETRKQSIVWEFEKYQRLLEKKQPPHRQLGAEVAAALASLQREAAETMQKLELNHSELIQQSQVLWRMIAELKERSQRPVRWMLQDIQEVLNRSKSWSLQQPEPISLELKTDCRVLGLREILKTYAADVRLDPDTAYSRLIVSEDRKRVHYGDTNQKLPDNPERFYRYNIVLGSQCISSGRHYWEVEVGDRSEWGLGVCKQNVDRKEVVYLSPHYGFWVIRLRKGNEYRAGTDEYPILSLPVPPRRVGIFVDYEAHDISFYNVTDCGSHIFTFPRYPFPGRLLPYFSPCYSIGTNNTAPLAICSLDGED",62,−0.338
"TRIM50: human RING type E3 ligase expressed from lentiviral vector (protein, UniProt Q86XT4 1-487, looked up) E3 ubiquitin-protein ligase …: MAWQVSLPELEDRLQCPICLEVFKEPLMLQCGHSYCKGCLVSLSCHLDAELRCPVCRQAVDGSSSLPNVSLARVIEALRLPGDPEPKVCVHHRNPLSLFCEKDQELICGLCGLLGSHQHHPVTPVSTVYSRMKEELAALISELKQEQKKVDELIAKLVNNRTRIVNESDVFSWVIRREFQELHHLVDEEKARCLEGIGGHTRGLVASLDMQLEQAQGTRERLAQAECVLEQFGNEDHHKFIRKFHSMASRAEMPQARPLEGAFSPISFKPGLHQADIKLTVWKRLFRKVLPAPEPLKLDPATAHPLLELSKGNTVVQCGLLAQRRASQPERFDYSTCVLASRGFSCGRHYWEVVVGSKSDWRLGVIKGTASRKGKLNRSPEHGVWLIGLKEGRVYEAFACPRVPLPVAGHPHRIGLYLHYEQGELTFFDADRPDDLRPLYTFQADFQGKLYPILDTCWHERGSNSLPMVLPPPSGPGPLSPEQPTKL",57.8,−0.392
"TRIM65: human RING type E3 ligase expressed from lentiviral vector (protein, UniProt Q6PJ69 2-517, looked up) E3 ubiquitin-protein ligase …: AAQLLEEKLTCAICLGLYQDPVTLPCGHNFCGACIRDWWDRCGKACPECREPFPDGAELRRNVALSGVLEVVRAGPARDPGPDPGPGPDPAARCPRHGRPLELFCRTEGRCVCSVCTVRECRLHERALLDAERLKREAQLRASLEVTQQQATQAEGQLLELRKQSSQIQNSACILASWVSGKFSSLLQALEIQHTTALRSIEVAKTQALAQARDEEQRLRVHLEAVARHGCRIRELLEQVDEQTFLQESQLLQPPGPLGPLTPLQWDEDQQLGDLKQLLSRLCGLLLEEGSHPGAPAKPVDLAPVEAPGPLAPVPSTVCPLRRKLWQNYRNLTFDPVSANRHFYLSRQDQQVKHCRQSRGPGGPGSFELWQVQCAQSFQAGHHYWEVRASDHSVTLGVSYPQLPRCRLGPHTDNIGRGPCSWGLCVQEDSLQAWHNGEAQRLPGVSGRLLGMDLDLASGCLTFYSLEPQTQPLYTFHALFNQPLTPVFWLLEGRTLTLCHQPGAVFPLGPQEEVLS",56.8,−0.404
"TRIM67: human RING type E3 ligase expressed from lentiviral vector (protein, UniProt Q6ZTA4 1-783, looked up) Tripartite motif-containing …: MEEELKCPVCGSLFREPIILPCSHNVCLPCARTIAVQTPDGEQHLPQPLLLSRGSGLQAGAAAAASLEHDAAAGPACGGAGGSAAGGLGGGAGGGGDHADKLSLYSETDSGYGSYTPSLKSPNGVRVLPMVPAPPGSSAAAARGAACSSLSSSSSSITCPQCHRSASLDHRGLRGFQRNRLLEAIVQRYQQGRGAVPGTSAAAAVAICQLCDRTPPEPAATLCEQCDVLYCSACQLKCHPSRGPFAKHRLVQPPPPPPPPAEAASGPTGTAQGAPSGGGGCKSPGGAGAGATGGSTARKFPTCPEHEMENYSMYCVSCRTPVCYLCLEEGRHAKHEVKPLGAMWKQHKAQLSQALNGVSDKAKEAKEFLVQLKNILQQIQENGLDYEACLVAQCDALVDALTRQKAKLLTKVTKEREHKLKMVWDQINHCTLKLRQSTGLMEYCLEVIKENDPSGFLQISDALIKRVQVSQEQWVKGALEPKVSAEFDLTLDSEPLLQAIHQLDFIQMKCRVPPVPLLQLEKCCTRNNSVTLAWRMPPFTHSPVDGYILELDDGAGGQFREVYVGKETLCTIDGLHFNSTYNARVKAFNSSGVGPYSKTVVLQTSDVAWFTFDPNSGHRDIILSNDNQTATCSSYDDRVVLGTAAFSKGVHYWELHVDRYDNHPDPAFGVARASVVKDMMLGKDDKAWAMYVDNNRSWFMHCNSHTNRTEGGVCKGATVGVLLDLNKHTLTFFINGQQQGPTAFSHVDGVFMPALSLNRNVQVTLHTGLEVPTNLGRPKLSGN",58.9,−0.378
"TRIM59: human RING type E3 ligase expressed from lentiviral vector (protein, UniProt Q8IWR1 1-403, looked up) Tripartite motif-containing …: MHNFEEELTCPICYSIFEDPRVLPCSHTFCRNCLENILQASGNFYIWRPLRIPLKCPNCRSITEIAPTGIESLPVNFALRAIIEKYQQEDHPDIVTCPEHYRQPLNVYCLLDKKLVCGHCLTIGQHHGHPIDDLQSAYLKEKDTPQKLLEQLTDTHWTDLTHLIEKLKEQKSHSEKMIQGDKEAVLQYFKELNDTLEQKKKSFLTALCDVGNLINQEYTPQIERMKEIREQQLELMALTISLQEESPLKFLEKVDDVRQHVQILKQRPLPEVQPVEIYPRVSKILKEEWSRTEIGQIKNVLIPKMKISPKRMSCSWPGKDEKEVEFLKILNIVVVTLISVILMSILFFNQHIITFLSEITLIWFSEASLSVYQSLSNSLHKVKNILCHIFYLLKEFVWKIVSH",59.5,−0.37
"TRIM52: human RING type E3 ligase expressed from lentiviral vector (protein, UniProt Q96A61 1-297, looked up, lentiviral expression, human RING type E3 ligase expressed from lentiviral vector) E3 ubiquitin-protein ligase …: MAGYATTPSPMQTLQEEAVCAICLDYFKDPVSISCGHNFCRGCVTQLWSKEDEEDQNEEEDEWEEEEDEEAVGAMDGWDGSIREVLYRGNADEELFQDQDDDELWLGDSGITNWDNVDYMWDEEEEEEEEDQDYYLGGLRPDLRIDVYREEEILEAYDEDEDEELYPDIHPPPSLPLPGQFTCPQCRKSFTRRSFRPNLQLANMVQIIRQMCPTPYRGNRSNDQGMCFKHQEALKLFCEVDKEAICVVCRESRSHKQHSVLPLEEVVQEYQEIKLETTLVGILQIEQESIHSKAYNQ",67.6,−0.267
"TRIM61: human RING type E3 ligase expressed from lentiviral vector (protein, UniProt Q5EBN2 1-209, looked up) Putative tripartite …: MEFVTALADLRAEASCPICLDYLKDPVTISCGHNFCLSCIIMSWKDLHDSFPCPFCHFCCPERKFISNPQLGSLTEIAKQLQIRSKKRKRQEEKHVCKKHNQVLTFFCQKDLELLCPRCSLSTDHQHHCVWPIKKAASYHRKKLEEYNAPWKERVELIEKVITMQTRKSLELKKKMESPSVTRLECSCTISAHFNLRLPGSSDSSASGS",65.8,−0.29
"RNF170: human RING type E3 ligase expressed from lentiviral vector (protein, UniProt Q96K19 1-258, looked up, lentiviral expression, human RING type E3 ligase expressed from lentiviral vector) E3 ubiquitin-protein ligase …: MAKYQGEVQSLKLDDDSVIEGVSDQVLVAVVVSFALIATLVYALFRNVHQNIHPENQELVRVLREQLQTEQDAPAATRQQFYTDMYCPICLHQASFPVETNCGHLFCGACIIAYWRYGSWLGAISCPICRQTVTLLLTVFGEDDQSQDVLRLHQDINDYNRRFSGQPRSIMERIMDLPTLLRHAFREMFSVGGLFWMFRIRIILCLMGAFFYLISPLDFVPEALFGILGFLDDFFVIFLLLIYISIMYREVITQRLTR",97.3,0.11
